Measured values: paper PMC10540217, “Native Semisynthesis of Isopeptide-Linked Substrates for Specificity Analysis of Deubiquitinases and Ubl Proteases” (Journal of the American Chemical Society, 2023)

Target: SUMO2-KG-TAMRA (human, UniProt P61956 1-95, C-terminal glycine linked by an isopeptide bond to the lysine side chain of the KG-TAMRA peptide)
Test: cell-based or functional assay

Chain of SUMO2-KG-TAMRA (P61956 whole entry): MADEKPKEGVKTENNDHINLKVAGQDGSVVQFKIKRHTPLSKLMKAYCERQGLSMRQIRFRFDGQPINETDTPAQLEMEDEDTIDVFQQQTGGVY

B1: USPL1 catalytic domain (enzyme, human, UniProt Q5W0Q7 227-500, looked up)
chain: VQWKNAYALCWLDCILSALVHSEELKNTVTGLCSKEESIFWRLLTKYNQANTLLYTSQLSGVKDGDCKKLTSEIFAEIETCLNEVRDEIFISLQPQLRCTLGDMESPVFAFPLLLKLETHIEKLFLYSFSWDFECSQCGHQYQNRHMKSLVTFTNVIPEWHPLNAAHFGPCNNCNSKSQIRKMVLEKVSPIFMLHFVEGLPQNDLQHYAFHFEGCLYQITSVIQYRANNHFITWILDADGSWLECDDLKGPCSERHKKFEVPASEIHIVIWERK
  catalytic efficiency in the fluorescence-polarization cleavage assay, SUMO2-KG-TAMRA against SUMO1-KG-TAMRA: ~25 fold
